One block for each binder: values may come before it. [ ]: non-standard residue; d: D form. dNle = CCCC[C@@H](N)C(=O)O
Target: human RAD51 (human) (UniProt Q06609)
Assay: cell-based or functional assay

Sequence of human RAD51 (human) (Q06609 2-339 limits assumed): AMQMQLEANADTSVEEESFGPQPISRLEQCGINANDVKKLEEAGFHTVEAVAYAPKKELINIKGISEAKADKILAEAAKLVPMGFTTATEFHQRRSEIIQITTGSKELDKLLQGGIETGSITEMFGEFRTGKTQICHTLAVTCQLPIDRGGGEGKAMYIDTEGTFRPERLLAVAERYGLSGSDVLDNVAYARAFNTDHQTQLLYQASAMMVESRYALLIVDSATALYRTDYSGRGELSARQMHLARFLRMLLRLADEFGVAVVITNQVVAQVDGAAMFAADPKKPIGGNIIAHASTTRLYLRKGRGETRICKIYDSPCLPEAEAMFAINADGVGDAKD

IC50: 20 µM
B1: Compound 9 (peptide)
peptide: Ac-[dL][dNle][dR][dS][dV][dR][dL][dR][dV]G[dL][dR][dK][dR][dR][dR][dR][dR][dR][dR]-NH2
SMILES: CCCC[C@@H](NC(=O)[C@@H](CC(C)C)NC(C)=O)C(=O)N[C@H](CCCNC(=N)N)C(=O)N[C@H](CO)C(=O)N[C@@H](C(=O)N[C@H](CCCNC(=N)N)C(=O)N[C@H](CC(C)C)C(=O)N[C@H](CCCNC(=N)N)C(=O)N[C@@H](C(=O)NCC(=O)N[C@H](CC(C)C)C(=O)N[C@H](CCCNC(=N)N)C(=O)N[C@H](CCCCN)C(=O)N[C@H](CCCNC(=N)N)C(=O)N[C@H](CCCNC(=N)N)C(=O)N[C@H](CCCNC(=N)N)C(=O)N[C@H](CCCNC(=N)N)C(=O)N[C@H](CCCNC(=N)N)C(=O)N[C@H](CCCNC(=N)N)C(=O)N[C@H](CCCNC(=N)N)C(N)=O)C(C)C)C(C)C

IC50: 9 µM
B2: Compound 11 (peptide)
peptide: Ac-[dL][dNle][dR]G[dV][dR][dL][dR][dV]G[dL][dR][dK][dR][dR][dR][dR]G[dY]-NH2
SMILES: CCCC[C@@H](NC(=O)[C@@H](CC(C)C)NC(C)=O)C(=O)N[C@H](CCCNC(=N)N)C(=O)NCC(=O)N[C@@H](C(=O)N[C@H](CCCNC(=N)N)C(=O)N[C@H](CC(C)C)C(=O)N[C@H](CCCNC(=N)N)C(=O)N[C@@H](C(=O)NCC(=O)N[C@H](CC(C)C)C(=O)N[C@H](CCCNC(=N)N)C(=O)N[C@H](CCCCN)C(=O)N[C@H](CCCNC(=N)N)C(=O)N[C@H](CCCNC(=N)N)C(=O)N[C@H](CCCNC(=N)N)C(=O)N[C@H](CCCNC(=N)N)C(=O)NCC(=O)N[C@H](Cc1ccc(O)cc1)C(N)=O)C(C)C)C(C)C

Source: patent publication US20240018188A1
